Common to all, as to assay type: biochemical
In series [1] the test system is NHase from Raoultella terrigena, 77.1. Kind of series: Substrate spectrum, relative activity of the NHase from strain 77.1. The settings on record: cell free crude cell extracts; 2-phenylpropionitrile set to 100%. The procedure:
(§1) If not otherwise indicated enzyme samples were prepared as follows: the cells from 1 ml of the culture were washed with 50 mM Tris/HCl pH 7.5 and resuspended in 750 μl of the same buffer. This suspension was incubated at 30° C. in a thermomixer at 1000 rpm. The biotransformation was started by addition of the substrate 2-phenylpropionitrile (PPN) in 50 mM Tris/HCl pH 7.5. The concentration of the substrate was 1 mM, if not otherwise stated. The reaction was stopped after 1 min, 5 min or 10 min as indicated by addition of 1 M HCl. Cells were removed by centrifugation and the supernatant analysed by HPLC for the presence of the corresponding amide. The HPLC analysis was carried out on a system comprising a Surveyor 4 channel Pump, AutoSampler and UVNIS detector at 210 nm from Thermo Finnigan on a Grom-Sil 1200DS-3 cp 3 μm (125×4.6 mm) reverse phase column. As mobile phase, acetonitrile and 0.3% H3PO4 were used in a ratio of 50:50 at a flow of 0.7 ml/min, respectively.
(§2) For the enzyme according Seq ID No. 2 and 4 (Raoultella terrigena, 77.1) and Seq ID. No. 18 and 20 (Klebsiella oxytoca, 38.1.2) the substrate spectrum was determined. The activities were compared to the activity towards 2-phenylpropionitrile which was set to 100%. Both enzymes are capable of the conversion of aliphatic as well as aromatic substrates.

The subject of series [2] is NHase from Klebsiella oxytoca, 38.1.2. Kind of series: Substrate spectrum, relative activity of the NHase from strain 38.1.2. The settings on record: lyophilized cells; 2-phenylpropionitrile set to 100%. The procedure:
as §1, §2

Series [3] is described as follows: Enantioselectivity of NHases towards rac-mandelonitrile (washed cells, chiral HPLC). The settings on record: for enantiopreference: (R/S)-mandelonitrile; for Eapp-value: kinetic resolution of (R/S)-mandelonitrile; for Eapp-value heterologously expressed / Eapp-value homologously expressed: rac-mandelonitrile; for Eapp-value heterologously expressed: heterologously expressed NHase; for Eapp-value homologously expressed: homologously expressed NHase. The procedure:
For the determination of enantioselectivity towards rac-mandelonitrile and 2-phenylpropionitrile 40-50 mg of washed cells were resuspended in 1 ml of 50 mM Tris/HCl pH 7.5. 100 μl of cell suspension were mixed with 800 μl 50 mM Tris/HCl pH 7.5 and incubated at 30° C. in a thermomixer at 1000 rpm. The biotransformation was started by addition of 100 μl of 10 mM rac-mandelonitrile or rac-2-phenylpropionitrile in 50 mM Tris/HCl pH 7.5. The reaction was stopped by addition of 100 μl 1M HCl after 1, 5 or 10 min. Cells were removed by centrifugation and the supernatant analysed by chiral HPLC for the presence of mandeloamide and phenylpropionamide, respectively. rac-Mandeloamide was analysed on a HPLC comprising a Surveyor 4 channel Pump, AutoSampler and UVNIS detector at 210 nm from Thermo Finnigan on a Nucleodex β-OH column (Macherey & Nagel) using 50% methanol/water:water (40:60) as mobile phase at a flow rate of 0.7 ml/min. The apparent enantiomeric ratio (Eapp) of the conversion of mandelonitrile was calculated according to Straathof and Jongejan for […] (see example 9). In case of 2-phenylpropionamide, the samples were lyophilized and resuspended in n-hexane: 2-propanol (80:20). Prior to injection, the samples were additionally dried with sodium sulfate and were centrifugated at 16,000 g for 5 min. The supernatants were analyzed using a Chiracel OD column (Daicel) on a Spectra System (AS3000, P2000, UV2000 at 210 nm) from Thermo Separation Products with n-hexane: 2-propanol (80:20) as mobile phase at a flow rate of 0.5 ml/min. The enantiomeric ratio (E) of the conversion of PPN was calculated according to Chen et al. […]

A short description of series [4]: Enantioselectivity of NHases towards rac-2-phenylpropionitrile (washed cells, chiral HPLC). The settings on record: for E-value: kinetic resolution of rac-2-phenylpropionitrile; for enantiopreference: rac-2-phenylpropionitrile. As to the method:
For the determination of enantioselectivity towards rac-mandelonitrile and 2-phenylpropionitrile 40-50 mg of washed cells were resuspended in 1 ml of 50 mM Tris/HCl pH 7.5. 100 μl of cell suspension were mixed with 800 μl 50 mM Tris/HCl pH 7.5 and incubated at 30° C. in a thermomixer at 1000 rpm. The biotransformation was started by addition of 100 μl of 10 mM rac-mandelonitrile or rac-2-phenylpropionitrile in 50 mM Tris/HCl pH 7.5. The reaction was stopped by addition of 100 μl 1M HCl after 1, 5 or 10 min. Cells were removed by centrifugation and the supernatant analysed by chiral HPLC for the presence of mandeloamide and phenylpropionamide, respectively. rac-Mandeloamide was analysed on a HPLC comprising a Surveyor 4 channel Pump, AutoSampler and UVNIS detector at 210 nm from Thermo Finnigan on a Nucleodex β-OH column (Macherey & Nagel) using 50% methanol/water:water (40:60) as mobile phase at a flow rate of 0.7 ml/min. The apparent enantiomeric ratio (Eapp) of the conversion of mandelonitrile was calculated according to Straathof and Jongejan for asymmetric catalysis (see example 9). In case of 2-phenylpropionamide, the samples were lyophilized and resuspended in n-hexane: 2-propanol (80:20). Prior to injection, the samples were additionally dried with sodium sulfate and were centrifugated at 16,000 g for 5 min. The supernatants were analyzed using a Chiracel OD column (Daicel) on a Spectra System (AS3000, P2000, UV2000 at 210 nm) from Thermo Separation Products with n-hexane: 2-propanol (80:20) as mobile phase at a flow rate of 0.5 ml/min. The enantiomeric ratio (E) of the conversion of PPN was calculated according to Chen et al.

Series [5] in a line: Activity of enzyme samples after heterologous expression of NHases in E. coli towards PPN. To be noted: 1 mM PPN; stopped after 1 min; host E. coli BL21 (DE3) (a) or E. coli Rosetta (DE3) (b). The procedure: The amplified α-subunits were ligated to pET22b whereas the β-subunits were ligated to pET26b by use of the unique NdeI and XhoI restriction enzyme recognition sites. E. coli BL21 (DE3) or E. coli Rosetta (DE3) was cotransformed with the vectors carrying the genes for the corresponding α- and β-subunits of the NHases. Freshly transformed cells were grown over night at 37° C. in 5 ml LB-medium containing 100 μg/ml ampicillin, 25 μg/ml kanamycin and 2% (w/v) glucose. In case of E. coli Rosetta (DE3) 12.5 μg/ml chloramphenicol was additionally used. 1 ml of this culture was used to inoculate 100 ml of LB-medium containing 100 μg/ml ampicillin, 25 μg/ml kanamycin and 1% (w/v) glucose. Cells were incubated at 20° C. or 30° C. on a gyratory shaker at 100 rpm. At an optical density O.D.595=1 cells were induced by addition of 100 μg/ml IPTG. Simultaneously, CoCl2*6H2O was added in a concentration of 250 μM. When the P16K activator protein from the strain Brevibacterium linens was coexpressed with the corresponding NHase E. coli Rosetta (DE3) pET22—32B1α pET26—32B.1β pBBR5—32B_P16K was grown in LB-medium containing 100 μg/ml ampicillin, 25 μg/ml kanamycin, 12.5 μg/ml chloramphenicol and 10 μg/ml gentamycin and 1% (w/v) glucose. Samples were taken 24 h after induction.
as §1

In the case of `CC(C#N)c1ccccc1` (stereo not drawn) [2-phenyl-propionitrile], the “rel. activity 77.1” value in series [1] came to 100%. For the same molecule, the “rel. activity 38.1.2” value in series [2] turned out to be 100%.
For the molecule butyronitrile, the “rel. activity 77.1” value in series [1] was found to be 242%. Moreover, the “rel. activity 38.1.2” value in series [2] turned out to be 281%.
In the same order, the values of `N#CCc1ccccc1` [phenyl-acetonitrile] are 1% and 1%.
Take `N#Cc1cccnc1` [3-cyanopyridine]: the “rel. activity 77.1” value in series [1] was determined as 21%.
Take `N#Cc1ccccc1` [benzonitrile]: the “rel. activity 77.1” value in series [1] is 18%. Also, the “rel. activity 38.1.2” value in series [2] amounted to 25%.
Regarding `CCC(C#N)c1ccccc1` (stereo not drawn) [2-phenyl-butyronitrile], the “rel. activity 77.1” value in series [1] is given as 1%. In addition, in series [2], the “rel. activity 38.1.2” value is 18%.
For methacrylonitrile, the “rel. activity 77.1” value in series [1] was 109%. In addition, in series [2], the “rel. activity 38.1.2” value is 138%.
In the same order, the values of `N#CC(O)c1ccccc1` (stereo not drawn) [mandelonitrile] are 5% and 9%.

B1: NHase Seq ID No. 10 and 12: nitrile hydratase of Pantoea sp. strain 17.3.1, α-subunit SEQ ID NO 10, β-subunit SEQ ID NO 12 (protein)
alpha: MSNHDVLPSESALKVRAIQSLLTEKGLLDPQTSDAIVDYFENKIGPRNGASVVARAWLDAEFKKKLLEDGTTAISEMGFSGAEGAVIHVLENTDAVHNIVVCTLCSCYPWPVLGLPPIWFKSAQYRSRVVIDPRGVLKEFGTELPPEKEIRVWDSNAEIRYFVLPQRPAGTENLSEEQLAARVTRDSMIGTGIL
beta: MNGIHDCGGMQNLGAIPLEENEPVFHAEWEKAILVMTINGFLSGSILVDNFRHQIEKMPASEYLLTSYYEHWVFAMEHLLINNNTITREALESRMAELAERVEMSAIAKETFLELIKTTPNYHRESDAIARFAPGDTIRTCELNTPGHTRLPRYARDKTGVIIAMYGVCVFPDSLTRDGSEDPQHVYLVQFSSADLWGAGSEPFTVSLSLFESYIAEKVE
modifications: Pantoea sp., strain 17.3.1
With B1, in series [3], the enantiopreference entry was “(S)”, the Eapp-value is 4, the Eapp-value heterologously expressed amounted to 4 and the Eapp-value homologously expressed turned out to be 5. Besides, in series [4], the E-value came out at 2 and the enantiopreference result was “(S)”. For the same molecule, in series [5], the spec. activity came out at 0.4 μkat/g cdw and the vol. activity came out at 0.6 μkat/L cultur.

B2: NHase Seq ID No. 14 and 16: nitrile hydratase of Brevibacterium linens strain 32B.1, α-subunit SEQ ID NO 14, β-subunit SEQ ID NO 16 (protein)
alpha: MSDKIRSQEEIAARVKALESMLIEKGIMTTQAIDRLVEIYENEVGPQLGAKVVAKAWSDPGFKSRLLTDATGACGELGIGGLQGEDMVVVEDTDTVHNVIVCTLCSCYPWPVLGLPPNWYKDPQYRAAICREPRKVLSESFGYTVSNDVEIRVWDSSSEMRYWVLPRRPDGTDGWTEDQLADLVSRDSMIGVGPTAKAQS
beta: MNGVFDLAGTDGLGPVVVPDDEPIFRAEWEKAAFGMFSMCFRGGFFGVDQFRYGMEQIDPAVYLKSPYYEHWIHTVEYHGERTGQLDLDELDRRTEYYLANPDAPMPEHADDPELLAFINAVVPAGAPAKRESDKIARFQVGDTVKVLRDSPRGHTRRARYIRGATGEIVLAHGTFIYPDTAGNNLGECPEHVYTVRFTAEELWGAETAEPNQSVYFDVWDPYIELVTPRGAQSA
modifications: Brevibacterium linens, strain 32B.1
For B2, in series [3], the enantiopreference result was “(S)”, the Eapp-value is 4, the Eapp-value heterologously expressed was found to be 4 and the Eapp-value homologously expressed stood at 4. For the same molecule, in series [4], the E-value was 8 and the enantiopreference entry is “(S)”. In series [5], this molecule showed a spec. activity of 16.9 μkat/g cdw and a vol. activity of 25.3 μkat/L cultur.

B3: NHase Seq ID No. 6 and 8: nitrile hydratase of Raoultella terrigena strain 37.1, α-subunit SEQ ID NO 6, β-subunit SEQ ID NO 8 (protein)
alpha: MSHKHDHDHTEPPIDIELRVRALESLLQEKGLIDPAALDELIDTYEHKVGPRNGAQVVARAWSDPEYKRRLMENATAAISELGFSGIQGEDMLVVENTPDVHNVTVCTLCSCYPWPVLGLPPVWYKSAPYRSRIVIDPRGVLAEFGLHIPESKEIRVWDSSAELRYLVLPERPAGTDGWSEAQLSELISRDSMIGTGVVTAP
beta: MNGIHDLGGMHGFGPIPTEENEPYFHHEWERRVFPMFASLFVGGHFNVDEFRHSIECMPPADYLQSSYYEHWLHAFETLLLAKGVITVDELWGGAKPTLCKPGTPVLTQDMVSMVVSTGGSARVSHDVAPRFRVGDRVRTKNFNPTTHTRLPRYARDKVGRIEIAHGVFITPDTAAHGLGEHPQHVYSVSFTAQELWGEPRPDNVFIDLWDDYLEEA
modifications: Raoultella terrigena, strain 37.1
In the case of B3, in series [3], the enantiopreference result is on record as “(S)”, the Eapp-value was 18, the Eapp-value heterologously expressed is on record as 18 and the Eapp-value homologously expressed came out at 17. Moreover, in series [4], the E-value is 47 and the enantiopreference entry is recorded as “(S)”. In series [5], this molecule yielded a spec. activity of 2.8 μkat/g cdw and a vol. activity of 5.5 μkat/L cultur.

These data come from patent publication US8470576B2, “Group of novel enantioselective microbial nitrile hydratases with broad substrate specificity” (B.R.A.I.N. AG, priority 2006, dated 2013).
